# Patent publication US20180355064A1 (published 2018)
# B1: humanized 9G7 best-framework antibody (antibody, V domains shown)
# VH: EVQLVESGGGLVQPGGSLRLSCAFSGLSLSTSGKGVGWIRQAPGKGLEWLAHIWWDDDKRYNPALKSRLTISKDTSKNTVYLQMNSLRAEDTAVYYCARIELGRSYVMDYWGQGTLVTVSS
# VL: DIQMTQSPSSLSASVGDRVTITCRASQDVITSVAWFQQKPGKAPKLLIYSASYRYTGVPSRFSGSGSGTDFTLTISSLQPEDFATYYCQQHYTIPLTFGQGTKVEIKR
# B2: humanized 9G7 best-fit antibody (antibody, V domains shown)
# VH: QVTLKESGPTLVKPTQTLTLTCTFSGLSLSTSGKGVGWIRQPPGKALEWLAHIWWDDDKRYNPALKSRLTITKDTSKNQVVLTMTNMDPVDTATYYCARIELGRSYVMDYWGQGTLVTVSS
# VL: DIQMTQSPSSLSASVGDRVTITCQASQDVITSVAWYQQKPGKAPKLLIYSASYRYTGVPSRFSGSGSGTDFTFTISSLQPEDIATYYCQQHYTIPLTFGQGTKLEIKR
# B3: chimeric 9G7 antibody (antibody, V domains shown)
# VH: QVTLKESGPGILQPSQTLSLTCSFSGLSLSTSGKGVGWIRQPSGKGLEWLAHIWWDDDKRYNPALKSRLTISKDTSSNQVFLKIASVDTADTATYYCARIELGRSYVMDYWGQGTTVTVSS
# VL: DIVMTQSHKFMSTSVGDRVSISCKASQDVITSVAWFQQKPGQSPKLLIYSASYRYTGVPDRFTGSGSGTDFTFTISSVQAEDLAVYYCQQHYTIPLTFGAGTKLELKR
# Legend:
# [1] = molecular target: human CD3 epsilon 1-26_Fc fusion protein; assay: SPR
# [2] = molecular target: cynomolgus monkey CD3 epsilon 1-26_Fc fusion protein; assay: SPR
Binder,Kd [1],Kd [2]
B1,0.4 nM,1 nM
B2,0.5 nM,3.2 nM
B3,0.4 nM,1 nM
